# Test results reported in patent US20230035037A1 (published 2023).
# T1: LRPAP1 (signal peptide), V-variant: C-terminal serine replaced by valine peptide on HLA-A*02:01 (human)
# T1 peptide: FLGPWPAAV
# T2: LRPAP1 (signal peptide), L-variant at position 9 peptide on HLA-A*02:01 (human)
# T2 peptide: FLGPWPAAL
# T3: LRPAP1 (signal peptide) peptide on HLA-A*02:01 (human)
# T3 peptide: FLGPWPAAS
# T4: LRPAP1 (signal peptide), I-variant at position 9 peptide on HLA-A*02:01 (human)
# T4 peptide: FLGPWPAAI
# Key:
# [1] = biological target: T1, LRPAP1 (signal peptide), V-variant: …; test: titration of short peptide on HLA-A*0201 positive T2 cells or EBV-JY cells; cytokine secretion by the LRPAP1-specific T cell clone (FIG. 1d, 1e); T cell clone or line
# [2] = biological target: T2, LRPAP1 (signal peptide), L-variant at …; test: as above
# [3] = biological target: T3, LRPAP1 (signal peptide) peptide on …; test: as above
# [4] = biological target: T4, LRPAP1 (signal peptide), I-variant at …; test: as above
# [5] = biological target: … (SEQ ID NO: 16) presented by HLA-A*0201 on peptide-pulsed cells (human); test: cell-based or functional assay
# [6] = biological target: … (SEQ ID NO: 1) presented by HLA-A*0201 on peptide-pulsed cells (human); test: cell-based or functional assay
# [7] = biological target: … (SEQ ID NO: 18) presented by HLA-A*0201 on peptide-pulsed cells (human); test: cell-based or functional assay
# [8] = biological target: … (SEQ ID NO: 2) presented by HLA-A*0201 on cells (human); test: cell-based or functional assay
binder,measurement,setting,value
"TCR of the LRPAP1-specific T cell clone 1A8 (TCR, V domains shown) Valpha: RKEVEQDPGPFNVPEGATVAFNCTYSNSASQSFFWYRQDCRKEPKLLMSVYSSGNEDGRFTAQLNRASQYISLLIRDSKLSDSATYLCVVMGYGQNFVFGPGTRLSVLP Vbeta: GAVVSQHPSWVICKSGTSVKIECRSLDFQATTMFWYRQFPKQSLMLMATSNEGSKATYEQGVEKDKFLINHASLTLSTLTVTSAHPEDSSFYICSAMGRQSTDTQYFGPGTRLTVL",EC50 of peptide,[1],0.1 µg/mL
same,EC50 of peptide,[2],3.7 µg/mL
same,EC50 of peptide,[3],1.9 µg/mL
same,EC50 of peptide,[4],0.7 µg/mL
same,EC50 of the T cell response to peptide-pulsed HLA-A*0201 positive cells (functional T cell avidity),[5],0.7 µg/mL
same,EC50 of the T cell response to peptide-pulsed HLA-A*0201 positive cells (functional T cell avidity),[6],0.1 µg/mL
same,"T cell activation, V-peptide against S-peptide",[6],19 fold
same,EC50 of the T cell response to peptide-pulsed HLA-A*0201 positive cells (functional T cell avidity),[7],3.7 µg/mL
same,EC50 of the T cell response to peptide-pulsed HLA-A*0201 positive cells (functional T cell avidity),[8],1.9 µg/mL
